Reference: paper PMC11724288

Assays:
[1] = target: TFIIICΔtail complex (S. cerevisiae TFIIIC with τ95 truncated at residue 593) (S. cerevisiae) (UniProt P34111); experiment: cryo-EM structure; τB–DNA dimer classes of dataset 1 (2 μM TFIIICΔtail with equimolar 85-bp tRNA^His DNA, 200 mM KCl); map with preferred orientation, no model deposited
[2] = target: TFIIICΔtail complex (S. cerevisiae TFIIIC with τ95 truncated at residue 593) (S. cerevisiae) (UniProt P34111); experiment: mass photometry; TFIIICΔtail at 50 and 100 nM, with and without 85- and 120-bp tRNA^His DNA; 20 mM HEPES pH 8, 100 mM KCl, 2 mM MgCl2, 5 mM DTT

Question: Which results are given for “TFIIICΔtail complex (S. cerevisiae TFIIIC with τ95 truncated at residue 593), P34111 1-1160; P33339 1-1025; P32367 1-593; Q06339 1-672; Q12308 1-588; Q12415 1-435”?
Answer: stoichiometry N [1]: 2; stoichiometry N [2]: 2
